Laboratory results published in patent US20210148907A1 (NATIONAL GUARD HEALTH AFFAIRS, published 2021).
One block for each binder: values may come before it.

Tests used:
[1] = target: Death-associated protein 3 (DAP3) (human, UniProt P51398 22-398); assay: co-immunoprecipitation with affi-gel-bound anti-Flag antibody from transfected HeLa cells; Western blot with anti-DAP3
Protocol: Briefly, equal numbers of HeLa cells were transfected with a control vector or Flag-epitope tagged N-terminus domain of BCL10 (aa. 1-97), C-terminus domain (aa. 104-233) or the full length BCL10. After 48 h of incubation, equal extracts (200 μg) from the transfected cells were incubated with a 50 μL of affi-gel-bound anti-Flag antibody. […] The expression of the Flag-BCL10 protein variants in the extracts (IB) was also assessed. β-actin was used as a loading control to ensure equal protein loading.

[2] = target: T1, human serum albumin (AffiGel 10-bound, HSA Column) (human, UniProt P02768 25-609); assay: Western blot of the eluate of the HSA control column with specific primary antibodies
T1 construct: also called HSA control column

[3] = target: T1, human serum albumin (AffiGel 10-bound, …); assay: AffiGel-HSA control column loaded with the HeLa S100 >800 kDa fraction; tandem mass spectrometry of the eluate

B1: Flag-epitope tagged N-terminus domain of BCL10 (aa. 1-97) (other, not shown: small tags and cut ends)
chain: MEPTAPSLTEEDLTEVKKDALENLRVYLCEKIIAERHFDHLRAKKILSREDTEEISCRTSSRKRAGKLLDYLQENPKGLDTLVESIRREKTQNFLIQ
notes: Expressed in transfected HeLa cells; also called amino terminal CARD domain (aa 1-97); CARD (N-terminus) domain of BCL10
binding result [1]: no binding

binding result [2]: no binding
B2: Insulin-like growth factor II (IGF-II) messenger RNA (mRNA)-binding protein-3 (IMP3) (other, UniProt O00425 1-579, looked up)
chain: MNKLYIGNLSENAAPSDLESIFKDAKIPVSGPFLVKTGYAFVDCPDESWALKAIEALSGKIELHGKPIEVEHSVPKRQRIRKLQIRNIPPHLQWEVLDSLLVQYGVVESCEQVNTDSETAVVNVTYSSKDQARQALDKLNGFQLENFTLKVAYIPDEMAAQQNPLQQPRGRRGLGQRGSSRQGSPGSVSKQKPCDLPLRLLVPTQFVGAIIGKEGATIRNITKQTQSKIDVHRKENAGAAEKSITILSTPEGTSAACKSILEIMHKEAQDIKFTEEIPLKILAHNNFVGRLIGKEGRNLKKIEQDTDTKITISPLQELTLYNPERTITVKGNVETCAKAEEEIMKKIRESYENDIASMNLQAHLIPGLNLNALGLFPPTSGMPPPTSGPPSAMTPPYPQFEQSETETVHLFIPALSVGAIIGKQGQHIKQLSRFAGASIKIAPAEAPDAKVRMVIITGPPEAQFKAQGRIYGKIKEENFVSPKEEVKLEAHIRVPSFAAGRVIGKGGKTVNELQNLSSAEVVVPRDQTPDENDQVVVKITGHFYACQVAQRKIQEILTQVKQHQQQKALQSGPPQSRRK
notes: Endogenous protein of HeLa cells; It describes the protein as IGF2BP3 with a mass of 63705 Da and also lists NP_006538; also called IMAP3; IGF2BP3

binding result [3]: no binding
B3: Phosphatase of Regenerative Liver (PRL1/protein tyrosine phosphatase PTP4A1) (enzyme)
chain: MARMNRPAPVEVTYKNMRFLITHNPTNATLNKFIEELKKYGVTTIVRVCEATYDTTLVEKEGIHVLDWPFDDGAPPSNQIVDDWLSLVKIKFREEPGCCIAVHCVAGLGRAPVLVALALIEGGMKYEDAVQFIRQKRRGAFNSKQLLYLEKYRPKMRLRFKDSNGHRNNC
notes: Endogenous protein of HeLa cells; also called PRL1/PTP4A1
